The values below are quoted from earlier work in article doi:10.1101/2025.04.17.649309.

The target of the data set is Cys12 (UniProt position 12, YTKETCPYCHR).

A word on the pKa: it is the pH at which an ionisable group is half protonated. On to “Glutaredoxin 3 (Grx3) (Escherichia coli)”, for which the pKa was 4.1.
